assay: soluble on expression in E. coli; label from the status in PepcDB or PDB records

Row | Sequence | soluble on expression in E. coli
1 | MSHHHHHHAGIFTFEEPVTHVSESIGIMEVKVLRTSGARGNVIVPYKTIEGTARGGGEDFEDTCGELEFQNDEIVKIITIRIFDREEYEKECSFSLVLEEPKWIRRGMKGGFTITEEYDDKQPLTSKEEEERRIAEMGRPILGEHTKLEVIIEESYEFKSTVD | soluble
2 | MGSDKIHHHHHHMKIMSIELGKFNQLEVVKQVDFGMYLDGGEEGEILLPTRYVPEDCKLGDWLNVFLYLDNEERLIATTLTPLVQVGEFACLEVSWVNQFGAFLNWGLMKDLFVPFSEQKMKMQVGNKYVIHAHIDDESFRIVASAKVDRYLSKEKASYQPGEEVNILIWQKTDLGFKAIIENMYSGLLYDSEIFQTLHTGDVLKAYVKQVREDGKIDLILQKPGFEKIDDFSKTLHRYITEHGGWIGLTDKSPAEEIYDTFGVSKKTFKKAVGDLYKKRLILLHEDGIELVRP | not soluble
3 | MGHHHHHHHHMTTSILDTYPQICSPNALPGTPGNLTKEQEEALLQFRSILLEKNYKERLDDSTLLRFLRARKFDINASVEMFVETERWREEYGANTIIEDYENNKEAEDKERIKLAKMYPQYYHHVDKDGRPLYFEELGGINLKKMYKITTEKQMLRNLVKEYELFATYRVPACSRRAGYLIETSCTVLDLKGISLSNAYHVLSYIKDVADISQNYYPERMGKFYIIHSPFGFSTMFKMVKPFLDPVTVSKIFILGSSYKKELLKQIPIENLPVKYGGTSVLHNPNDKFYYSDIGPWRDPRYIGPEGEIPNIFGKFTVTS | soluble
4 | MVFEGHLVGTGLKVGVVVGRFNEFITSKLLGGALDGLKRHGVEENDIDVAWVPGAFEIPLIAKKMANSGKYDAVITLGTVIRGATTHYDYVCNEVAKGVASLSLQTDIPVIFGVLTTETIEQAIERAGTKAGNKGYESAVAAIEMAHLSKHWA | not soluble
5 | MGSDKIHHHHHHMERFPYEKLPESELKELKELGRLCRGDILKMTYIANSGHPGGSMSSIDLYLTVFKYAKLRPVDDPARDRIVISHGHTSPGVYAAMARLGFVDLDEVLAGFRHPASVFEGHVTRGVGIIDWTTGNLGQGLSAGLGFALASRFTGKDYHVFVLMSDAEQAKGQVAEARRVAKKYGVTNLTVIIDYNDAQISGRARDVMPVNIKENYLADGWRVIEIDGHDYEQIYLALKEAVEDELNPVAIIAKTVMGKGVSFMENEVKYHGKPLNREELEKALAELGIENDVDVYIEKRKQLPVEKHKKVYKTYPIKIDTGEPITYTSPTDNRSAFGKAILDLVKKNVNNPETTPIVAVDCDLKGSVKLDLLDKEFPERLLEVGVQEHNAAAMAGALSAEGVITFFADFGVFGISETYNQHRLNAINGTNLKVVVTHCGLNVGEDGKTHHGLDYVSGPMNWYGFKVIVPGDPNQTDRVVRYAAKEYGNFVIAMGRSKLPIILDENGKPFFGEGYTFEYGKIDVVRKGDDAVIITYGSTLCEAVNAADELKKEGVNVAVLNVSCPVDLDIETLKMVDGKPVLVVEDHNVFTGLGSFLGTTLLENGIIPKKYVRVGVPEFAVSGSYTMLYKLYGLDKDGIISRLREML | not soluble
6 | MSLTSTATDSPLKYYDIGLNLTDPMFHGIYNGKQYHPADYVKLLERAAQRHVKNALVTGSSIAESQSAIELVSSVKDLSPLKLYHTIGVHPCCVNEFADASQGDKASASIDNPSMDEAYNESLYAKVISNPSFAQGKLKELYDLMNQQAKPHDTSFRSIGEIGLDYDRFHYSSKEMQKVFFEEQLKISCLNDKLSSYPLFLHMRSACDDFVQILERFVVGFTDEKDTFQLQKLGASSSSGFYKFHPDRKLVVHSFTGSAIDLQKLLNLSPNIFIGVNGCSLRTEENLAVVKQIPTERLLLETDAPWCEIKRTHASFQYLAKYQEVRDFEYPAFKSVKKNKLADKLNAEELYMVKGRNEPCNMEQVAIVVSEVKDVDLATLIDTTWKTTCKIFGEGHHHHHH | soluble
7 | QDNALKQVAAMAKIADRYVSAWGSEAQVEDDTIRRLLASLGYDTSSDDALLQSAEKKHKKDVVDPVLVVHQGSAIEVPLYLGVSARESEFDWRLQTEQGEVLEGYLQSQIVRDERAEGGPLVFALPNDLPLGYHTLLIARKRRKAPYEMTLIVTPQACYKQPALAQ | not soluble
8 | MNIGVIGTGNMGTILIEAFLDSGAVKADQLVITNRTLAKAFAIQRAHPGIAVVADAAEVIKQSSLVFLCVKPLDIHPLLQQLAPHWTREHCLVSITSPISVEQLEAAVPCQIVRAIPSIANRALSGSILVTFGSRCSTTCRQTIDDLLRRIASPVYIDEAITRVASDISSCGPAFFSYLLQRFIDAAAAKTAITKEQATMLATDMIIGLGELLKRNLYTLPTLQEKVCVKGGITGEGIAVLEQRMNGVFEEVLAKTHEKFKEDVEKVKQQFS | not soluble
9 | MSLLLENCKLETGFSTVNQRIVATETASYDIRIENEVCTAVAPQLRPLENETVIDVNQQLVLPALREMHIHIDKTYFGGPWKACRPLTKGILTRIEEETWLLPEQLPTSLERACQVIEQYIQQGHYHIRSHCNVDPSIGTKHIEITKEAFSRYEQYITHEIVAFPQHGLLRSQVEPLMREALRMGATHVGGVDPALVDRHVDHSIAKIFELATTFNKKIDVHLHARDTLGLYEFNKFVDYTEQAKMFGKVTLSHALALGSLEEAAIRDIAQKFIETGIDLTSTVPIGMPTMPIPTLVEQGVKISVAHDSLTDHWSPFGSGNTIEKLNTAAQRFKISDEYRLNRLWGLASNFVTPLDPNGQQVWPNVGDSADFLLFNAESTAHVIARQQPIQQLILKGQLVEAVQKGEKEEGHHHHHH | soluble
10 | KKTEWSREEEEKLLHLAKLMPTQWRTIAPIIGRTAAQCLEHYEFLLDKAAQRD | soluble
11 | ETIELYKSSVPSGKEAGKNALAITNQQLISALENAAKDNKTSQPQARSLTASDQVQITQSSDKVIGYITTSNLDIDNNNTFDVGKLNGDKSTSKIIVNATLKTLNKINTLQSEEGIILPHPQKYKSTDPQAVATVQGPSIIGVHANAKENAETQKFINW | not soluble
12 | MSLDHSRDQARRNIAVHYDLSNDLFAAFLDETMTYSCAMFTDLLAQPTPAWTELAAAQRRKIDRLLDVAGVQQGSHVLEIGTGWGELCIRAAARGAHIRSVTLSVEQQRLARQRVAAAGFGHRVEIDLCDYRDVDGQYDSVVSVEMIEAVGYRSWPRYFAALEQLVRPGGPVAIQAITMPHHRMLATRHTQTWIQKYIFPGGLLPSTQAIIDITGQHTGLRIVDAASLRPHYAETLRLWRERFMQRRDGLAHLGFDEVFARMWELYLAYSEAGFRSGYLDVYQWTLIREGPEGHHHHHH | not soluble
13 | PVLIVTPLEDQQVFVGDRVEMAVEVSEEGAQVMWMKNGVELTREDSFKARYRFKKDGKRHILIFSDVVQEDRGRYQVITNGGQCEAELIVEEKQ | soluble
14 | MSLSFSMKIKNIPYYVATRVVKRIQSWLGLNTLGARAIVTNAEGHVLLVKHTYQPHWYLPGGGVKKGESTKAAVIRELHEEVGLVVAEQDVILFGIYHHKYLGVNDYPVIYIVKNFTSHVTHSGEIEQIGWFSLDALPEMVSPGTKRRLGEYFDNNPISEGHHHHHH | not soluble
15 | MKKIATATIATAGIATFAFAHHDAQAAEQNNDGYNPNDPYSYSYTYTIDAEGNYHYTWKGNWSPDRVNTSYNYNNYNNYNYYGYNNYSNYNNYSNYNNYNNYQSNNTQSQRTTQPTGGLGASYSTSSSNVHVTTTSAPSSNGVSLSNARSASGNLYTSGQCTYYVFDRVGGKIGSTWGNANNWANAAARSGYTVNNSPAKGAILQTSQGAYGHVAYVEGVNSNGSIRVSEMNYGHGAGVVTSRTISASQAASYNYIHLEHHHHHH | not soluble
16 | SLRRVLMLEGCAQPTLSPNTNAATARVLDRLGISVMPANEAGCCGAVDYHLNAQEKGLARARNNIDAWWPAIEAGAEAILQTASGCGAFVKEYGQMLKNDALYADKARQVSELAVDLVELLREEPLEKLAIRGDKKLAFHCPCTLQHAQKLNGEVEKVLLRLGFTLTDVPDSHLCCGSAGTYALTHPDLARQLRDNKMNALESGKPEMIVTANIGCQTHLASAGRTSVRHWIEIVEQALEKE | soluble
17 | MADSEADKPLRKISAAFKKLAIIVNSPNPEVPVTQFSHACSLVSPLFGCLGIAFKFAEMDYVAKVDDLVRASSSISTLVVMMDKDIEADCVRKAGSHTRNLLRVKRGLDMVKVLFEQIIASEGDNSLKDPATKSYAQVFAPHHGWAIRKAVSLGMYALPTRAHLLNMLKEDEAAAKIHMQSYVNSSAPLITYLDNLFLSKQLGIDW | not soluble
18 | TRAFKWTTNFNISFNKNKVLALSENQTALLTAAQFDQNYNGQSSYIAKVGLPMGLMYGYVYEGTYKYDDFNKSGNSYSLKPGVPHYSTETNTQPGMPKYADLNGDGVVDSNDRTIIGRGLPIHTGGFTNNFEYKGIDLSIFFQWSYGNDIMNANRLFFESSNNRSRELNQFASYANRWTPENPTSDIPAATNSSSNRVISSRIIEDGSYLRLKNVTVGYTFPAKLVKKWKIDKARVYVAAQNLWTCTGYSGYDPEVSVRNSALTPGLDYSSYPRAYSISFGVSLGF | not soluble
19 | MKLPLFPLPICLLPEGYTQLRIFEPRYKRLVAESLKSGDGFGLCMTSEEVNTLYPIGTLVHIIDFETLSDGMLGVSIEGKQRFILGDISVESDGLKRAQINLIDNWPAAPIHENEHYLSDMLQNILKEYPKHLQQYQAAQFDDIAWVCQRWLEILPIRSAEKYTCINALDHQLTLDLLRTVIKLEHHHHHH | soluble
20 | MIDEYDDLAHDSSEGEFEPNTLTPEEKPPHNVDEDRIESTGVAAPMQGTEEPEKGDQKESDGASQVDQSVEITRPETSYYQTLESPSTKRQKLDQQGNGDQTRDFGTSMEL | soluble
21 | MGNEEEKMNADIFSYEGEGIQCVYDNKNWVMCIKNWKPNNDIENIRYLEVHHATDEQFVLLKGKAVLLAAVKADGACRIDVIPMEPYKVYNIPQGIWFNTITQKDTKLVYVQDAATTAENSEYCDMTQEELNEVKEKASACLD | not soluble
22 | FSDILEDRIERLNACFAKAIARYNYPGVYRGVFPVKCNQERHLIEDLVKFGKPHQFGLEAGSKPELMIALAVLDTPGALLVCNGYKDREYIETAMLAQRLGQTPIIVLEQIEEVDLVIDANRQLGIKPILGVRAKLSTQGMGRWGASSGDRAKFGLTMPEVIEAVDKLREANLLDSLQLMHFHIGSQISAINVIKDAIQEASRIYVELAMLGADMKYLDVGGGLGVDYDGSQTNFYASKNYNMQNYANDIVAELKDTCAERQITVPTLISESGRAIAS | not soluble
23 | MKACGIIVEYNPFHNGHRYHAQQARQQSGAEVVIAIMSGNFLQRGEPALLDKWARAEEALQNGVDLVIELPTAWSVQSADYFAKGGIKLLQALQCESLCFGTDSTSAIDYAAFGQFVQENQSLIDQTFHALTDKQLSYPQKMTAVFRQVYPESRFDFSSPNHILGMSYAKENATYPTPMTLYPIARKQAGFHDATISGKVASATAIRQSVFQQEITQVLPTVPSITAQHLQTQTMISWENYWPFLKYKIVQSSLEELQAIYQMTEGLEYRLKDQIQAAGSFHELMERMKTKRYTWTRLQRLATYILLNMTKEEVETVWQNSYLHVLGFTPKGQAYLKETKAQIQLPVISKVSKENRAMLSLDIRANQLYQMGDSSLKEQNFGRFPLRFSPDT | not soluble
24 | MTALISISLLLVTFAGAAEMCAPVTQHSTPQSDVPSTVTITFHKLETSTTTKDEILNAIRTSHPDVHATGEPIDKKSIKVTLTAVSCVTAMKLAEEVLNAGTPVVLNAYAMLCDGEISTNIKP | soluble
25 | MSLHLSKGFSNMIGVVLPTVNLPYFAELIAGIADAAAESGVHLSLFQTNYEVQKEIFALSQLKQRQVDGLIFCSKALADEKLMEWEGPILLCQNSDNARFPTISIPHQEAFRNGLDYLIAKGHKKIAICLARKKGMNSHFRIKAYKEALEEIGEAFREDWVIEKAITINDGKALFHKWNTWKEKPTAIFVANDQVSAGLFLEAKNQRVSVPDELAILSVDNHEISQALGITTIDIQTREMGKQAFAILEKRIQGQPIERKVLDYRLIERSTVEGHHHHHH | soluble

From the DeepSol protein solubility set
